The Human Domainome abundance scans (Beltran et al. 2025)
± gives the uncertainty stated by the source.

B1: Integrator complex subunit 12, residues 155 to 213; numbered along this chain, Q96CB8 (parent)
chain: AMEMGLACVVCRQMMVASGNQLVECQECHNLYHRDCHKPQVTDKEANDPRLVWYCARCT

Variants of: B1
Experiment: abundance fitness (aPCA) (normalised: wild type 0, dead -1); higher = more abundant; growth selection in yeast, the domain comes from the species named
Conditions: Homo sapiens

Question: Which abundance fitness does the source give for AMEMGLACVVCRQMMVASGNQLVECQECHNLYHRDCHKPQVTDKEAKDPRLVWYCARCT [N47K] here?
Answer: -0.046 ± 0.066

Question: Which abundance fitness does the source give for AMEMGLACVVCRQMMVASGNQLVECQECHNLYHRDCHKPQVTDKEAGDPRLVWYCARCT [N47G] here?
Answer: 0.02 ± 0.053

Question: Which abundance fitness does the source give for AMEMGLACVVCRQMMVASGNQLVECQECHNLYHRDCHKPQVTDKEAWDPRLVWYCARCT [N47W] here?
Answer: -0.154 ± 0.064

Question: For AMEMGLACVVCRQMMVASGNQLVECQECHNLYHRDCHKPQVTDKEAADPRLVWYCARCT [N47A], which abundance fitness is on record?
Answer: -0.166 ± 0.053

Question: For AMEMGLACVVCRQMMVASGNQLVECQECHNLYHRDCHKPQVTDKEAYDPRLVWYCARCT [N47Y], which abundance fitness is on record?
Answer: -0.223 ± 0.08

Question: For AMEMGLACVVCRQMMVASGNQLVECQECHNLYHRDCHKPQVTDKEAVDPRLVWYCARCT [N47V], which abundance fitness is on record?
Answer: -0.066 ± 0.048

Question: With AMEMGLACVVCRQMMVASGNQLVECQECHNLYHRDCHKPQVTDKEAFDPRLVWYCARCT [N47F] as the variant, how does the abundance fitness read?
Answer: -0.162 ± 0.052

Question: Which abundance fitness does the source give for AMEMGLACVVCRQMMVASGNQLVECQECHNLYHRDCHKPQVTDKEAPDPRLVWYCARCT [N47P] here?
Answer: -0.2 ± 0.056

Question: Which abundance fitness does the source give for AMEMGLACVVCRQMMVASGNQLVECQECHNLYHRDCHKPQVTDKEATDPRLVWYCARCT [N47T] here?
Answer: -0.075 ± 0.05

Question: For AMEMGLACVVCRQMMVASGNQLVECQECHNLYHRDCHKPQVTDKEAIDPRLVWYCARCT [N47I], which abundance fitness is on record?
Answer: -0.11 ± 0.081

Question: For AMEMGLACVVCRQMMVASGNQLVECQECHNLYHRDCHKPQVTDKEAEDPRLVWYCARCT [N47E], which abundance fitness is on record?
Answer: -0.005 ± 0.054

Question: With AMEMGLACVVCRQMMVASGNQLVECQECHNLYHRDCHKPQVTDKEAMDPRLVWYCARCT [N47M] as the variant, how does the abundance fitness read?
Answer: -0.105 ± 0.056

Question: Which abundance fitness does the source give for AMEMGLACVVCRQMMVASGNQLVECQECHNLYHRDCHKPQVTDKEALDPRLVWYCARCT [N47L] here?
Answer: -0.05 ± 0.037

Question: Which abundance fitness does the source give for AMEMGLACVVCRQMMVASGNQLVECQECHNLYHRDCHKPQVTDKEAHDPRLVWYCARCT [N47H] here?
Answer: 0.011 ± 0.073

Question: Which abundance fitness does the source give for AMEMGLACVVCRQMMVASGNQLVECQECHNLYHRDCHKPQVTDKEAQDPRLVWYCARCT [N47Q] here?
Answer: -0.092 ± 0.053

Question: For AMEMGLACVVCRQMMVASGNQLVECQECHNLYHRDCHKPQVTDKEACDPRLVWYCARCT [N47C], which abundance fitness is on record?
Answer: -0.013 ± 0.095

Question: With AMEMGLACVVCRQMMVASGNQLVECQECHNLYHRDCHKPQVTDKEASDPRLVWYCARCT [N47S] as the variant, how does the abundance fitness read?
Answer: 0.035 ± 0.041

Question: Which abundance fitness does the source give for AMEMGLACVVCRQMMVASGNQLVECQECHNLYHRDCHKPQVTDKESNDPRLVWYCARCT [A46S] here?
Answer: -0.075 ± 0.052

Question: Which abundance fitness does the source give for AMEMGLACVVCRQMMVASGNQLVECQECHNLYHRDCHKPQVTDKERNDPRLVWYCARCT [A46R] here?
Answer: -0.089 ± 0.039

Question: With AMEMGLACVVCRQMMVASGNQLVECQECHNLYHRDCHKPQVTDKETNDPRLVWYCARCT [A46T] as the variant, how does the abundance fitness read?
Answer: -0.136 ± 0.068

Question: Which abundance fitness does the source give for AMEMGLACVVCRQMMVASGNQLVECQECHNLYHRDCHKPQVTDKEVNDPRLVWYCARCT [A46V] here?
Answer: 0.008 ± 0.043

Question: With AMEMGLACVVCRQMMVASGNQLVECQECHNLYHRDCHKPQVTDKEWNDPRLVWYCARCT [A46W] as the variant, how does the abundance fitness read?
Answer: -0.063 ± 0.052

Question: With AMEMGLACVVCRQMMVASGNQLVECQECHNLYHRDCHKPQVTDKEYNDPRLVWYCARCT [A46Y] as the variant, how does the abundance fitness read?
Answer: -0.029 ± 0.071

Question: With AMEMGLACVVCRQMMVASGNQLVECQECHNLYHRDCHKPQVTDKEANDRRLVWYCARCT [P49R] as the variant, how does the abundance fitness read?
Answer: -0.022 ± 0.041

Question: With AMEMGLACVVCRQMMVASGNQLVECQECHNLYHRDCHKPQVTDKEANDFRLVWYCARCT [P49F] as the variant, how does the abundance fitness read?
Answer: -0.333 ± 0.14

Question: With AMEMGLACVVCRQMMVASGNQLVECQECHNLYHRDCHKPQVTDKEANDIRLVWYCARCT [P49I] as the variant, how does the abundance fitness read?
Answer: 0.002 ± 0.14

Question: Which abundance fitness does the source give for AMEMGLACVVCRQMMVASGNQLVECQECHNLYHRDCHKPQVTDKEANDERLVWYCARCT [P49E] here?
Answer: 0.027 ± 0.05

Question: For AMEMGLACVVCRQMMVASGNQLVECQECHNLYHRDCHKPQVTDKEANDKRLVWYCARCT [P49K], which abundance fitness is on record?
Answer: 0.001 ± 0.072

Question: Which abundance fitness does the source give for AMEMGLACVVCRQMMVASGNQLVECQECHNLYHRDCHKPQVTDKEANDDRLVWYCARCT [P49D] here?
Answer: 0.026 ± 0.079

Question: Which abundance fitness does the source give for AMEMGLACVVCRQMMVASGNQLVECQECHNLYHRDCHKPQVTDKEANDLRLVWYCARCT [P49L] here?
Answer: -0.101 ± 0.048

Question: With AMEMGLACVVCRQMMVASGNQLVECQECHNLYHRDCHKPQVTDKEANDGRLVWYCARCT [P49G] as the variant, how does the abundance fitness read?
Answer: 0.062 ± 0.044

Question: Which abundance fitness does the source give for AMEMGLACVVCRQMMVASGNQLVECQECHNLYHRDCHKPQVTDKEANDNRLVWYCARCT [P49N] here?
Answer: -0.17 ± 0.12

Question: With AMEMGLACVVCRQMMVASGNQLVECQECHNLYHRDCHKPQVTDKEANDMRLVWYCARCT [P49M] as the variant, how does the abundance fitness read?
Answer: -0.06 ± 0.069

Question: For AMEMGLACVVCRQMMVASGNQLVECQECHNLYHRDCHKPQVTDKEANDSRLVWYCARCT [P49S], which abundance fitness is on record?
Answer: -0.007 ± 0.053

Question: For AMEMGLACVVCRQMMVASGNQLVECQECHNLYHRDCHKPQVTDKEANDHRLVWYCARCT [P49H], which abundance fitness is on record?
Answer: -0.132 ± 0.17

Question: For AMEMGLACVVCRQMMVASGNQLVECQECHNLYHRDCHKPQVTDKEANDCRLVWYCARCT [P49C], which abundance fitness is on record?
Answer: -0.318 ± 0.077

Question: For AMEMGLACVVCRQMMVASGNQLVECQECHNLYHRDCHKPQVTDKEANDYRLVWYCARCT [P49Y], which abundance fitness is on record?
Answer: -0.258 ± 0.1

Question: For AMEMGLACVVCRQMMVASGNQLVECQECHNLYHRDCHKPQVTDKEANDTRLVWYCARCT [P49T], which abundance fitness is on record?
Answer: 0.023 ± 0.073

Question: With AMEMGLACVVCRQMMVASGNQLVECQECHNLYHRDCHKPQVTDKEANDVRLVWYCARCT [P49V] as the variant, how does the abundance fitness read?
Answer: -0.082 ± 0.044

Question: For AMEMGLACVVCRQMMVASGNQLVECQECHNLYHRDCHKPQVTDKEANDARLVWYCARCT [P49A], which abundance fitness is on record?
Answer: -0.046 ± 0.049

Question: With AMEMGLACVVCRQMMVASGNQLVECQECHNLYHRDCHKPQVTDKEANDPRAVWYCARCT [L51A] as the variant, how does the abundance fitness read?
Answer: 0.042 ± 0.054

Question: For AMEMGLACVVCRQMMVASGNQLVECQECHNLYHRDCHKPQVTDKEANDPREVWYCARCT [L51E], which abundance fitness is on record?
Answer: 0.056 ± 0.06

Question: Which abundance fitness does the source give for AMEMGLACVVCRQMMVASGNQLVECQECHNLYHRDCHKPQVTDKEANDPRIVWYCARCT [L51I] here?
Answer: -0.282 ± 0.08

Question: With AMEMGLACVVCRQMMVASGNQLVECQECHNLYHRDCHKPQVTDKEANDPRPVWYCARCT [L51P] as the variant, how does the abundance fitness read?
Answer: 0.035 ± 0.06

Question: With AMEMGLACVVCRQMMVASGNQLVECQECHNLYHRDCHKPQVTDKEANDPRTVWYCARCT [L51T] as the variant, how does the abundance fitness read?
Answer: 0.037 ± 0.07
